Data as given in patent publication US5760204.

Assays:
[1] = molecular target: human interleukin 5 receptor 2 HSIL5R2 (human); assay: Scatchard analysis, 125I-labeled human IL-5 on COS7 cells transfected with pCAGGS.HSIL5R2
[2] = molecular target: human interleukin 5 receptor HSIL5R (human); assay: Scatchard analysis, 125I-labeled human IL-5 on COS7 cells transfected with pCAGGS.HSIL5R
[3] = molecular target: low affinity IL-5R on Y16 cells (mouse) (UniProt P21183); assay: Scatchard analysis, 35S-labeled IL-5 on Y16 cells, low affinity sites
[4] = molecular target: murine interleukin 5 receptor encoded by pIL-5R.8 (membrane bound, low affinity IL-5R) (mouse); assay: Scatchard analysis, 35S-labeled IL-5 on COS7 cells transfected with pIL-5R.8 (CDM8 vector)
[5] = molecular target: human interleukin 5 receptor 2 HSIL5R2 (human); assay: Scatchard analysis, 35S-labeled mouse IL-5 on COS7 cells transfected with pCAGGS.HSIL5R2
[6] = molecular target: human interleukin 5 receptor HSIL5R (human); assay: Scatchard analysis, 35S-labeled mouse IL-5 on COS7 cells transfected with pCAGGS.HSIL5R
[7] = molecular target: murine interleukin 5 receptor encoded by pIL-5R.8 (membrane bound, low affinity IL-5R) (mouse); assay: Scatchard analysis, 35S-labeled IL-5 on COS7 cells transfected with pCAGGS.5R.8
[8] = molecular target: high affinity IL-5R on Y16 cells (mouse) (UniProt P21183); assay: Scatchard analysis, 35S-labeled IL-5 on Y16 cells, high affinity sites

Kd [1] [nM] | Kd [2] [nM] | Kd [3] [nM] | Kd [4] [nM] | Kd [5] [nM] | Kd [6] [nM] | Kd [7] [nM] | Kd [8] [nM] | Substance
0.41 | 0.59 | – | – | – | – | – | – | human interleukin 5 (from UniProt P05113) (ligand)
– | – | 5.1 | 2 | 0.355 | 0.25 | 9.6 | 0.02 | murine interleukin 5 (from UniProt P04401) (ligand)
